Source: patent US20170240629A1 (Hoffmann-La Roche, published 2017)
Where two headings read alike, the source gives them in different places.

Tests used:
ANG2 = target: T1, ANG2 (UniProt O15123 68-496, limits assumed); assay: cell-based or functional assay
T1 sequence (looked up): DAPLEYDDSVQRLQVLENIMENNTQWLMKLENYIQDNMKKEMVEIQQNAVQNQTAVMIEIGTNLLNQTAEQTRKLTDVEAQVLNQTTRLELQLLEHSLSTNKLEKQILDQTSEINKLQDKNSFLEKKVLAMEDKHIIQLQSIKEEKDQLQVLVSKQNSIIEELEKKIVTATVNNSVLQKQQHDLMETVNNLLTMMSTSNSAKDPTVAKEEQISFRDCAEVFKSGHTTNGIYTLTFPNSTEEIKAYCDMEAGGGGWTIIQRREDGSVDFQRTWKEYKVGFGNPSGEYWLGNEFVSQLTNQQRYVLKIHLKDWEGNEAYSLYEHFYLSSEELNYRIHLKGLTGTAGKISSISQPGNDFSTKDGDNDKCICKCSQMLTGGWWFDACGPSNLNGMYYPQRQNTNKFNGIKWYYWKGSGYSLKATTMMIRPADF

human IL-1beta [1] = target: T2, human IL-1beta (human, UniProt P01584 117-269); assay: cell-based or functional assay
human IL-1beta [2] = target: T2, human IL-1beta; assay: cell-based or functional assay; remark: listed apart in the source
[3] = target: T3, human ANG2-RBD-mouse Fc-region fusion (human, UniProt O15123 275-496, limits assumed); assay: SPR (BIAcore T200); ANG2-RBD-mouse Fc captured, antibody injected (Example 52)
T3 construct: domain: RBD; also called human ANG2-RBD-murine Fc-region fusion; not shown: mouse Fc-region
T3 sequence (looked up): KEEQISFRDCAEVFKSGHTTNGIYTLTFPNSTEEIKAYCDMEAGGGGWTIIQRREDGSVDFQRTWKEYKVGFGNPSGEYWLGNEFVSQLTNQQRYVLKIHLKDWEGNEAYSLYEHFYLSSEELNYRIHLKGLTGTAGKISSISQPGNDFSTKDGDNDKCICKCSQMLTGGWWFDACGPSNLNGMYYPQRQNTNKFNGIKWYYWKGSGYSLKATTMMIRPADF

human IL-1beta [4] = target: T2, human IL-1beta; assay: SPR (BIAcore T200); antibody captured by anti-human Fc, human IL-1beta injected (Example 52); set-up: t 1/2: unit not given here
human PDGF-BB [5] = target: T4, human PDGF-BB (human, UniProt P01127 82-190); assay: SPR; IgG
T4 construct: also called huPDGF-BB

human PDGF-BB [6] = target: T4, human PDGF-BB; assay: ELISA, antigen coated
Method: (§1) The binding analysis was carried out using an enzyme-linked immunosorbent assay (ELISA)-based technology. […] The EC₅₀ was calculated with a four parameter logistic model using GraphPad Prism 6.0 software.

murine PDGF-BB [7] = target: T5, murine PDGF-BB (murine, UniProt P31240 82-190); assay: ELISA, antigen coated
T5 construct: also called muPDGF-BB
Method: as §1

rat PDGF-BB [8] = target: T6, rat PDGF-BB (rat, UniProt Q05028 74-182); assay: ELISA, antigen coated
Method: as §1

cynomolgus PDGF-BB [9] = target: T7, cynomolgus PDGF-BB (cynomolgus, UniProt A0A2K5UX81 82-190); assay: ELISA, antigen coated
T7 construct: also called cynPDGF-BB
Method: as §1

human PDGF-BB [10] = target: T4, human PDGF-BB; assay: cell-based or functional assay
human PDGF-BB [11] = target: T4, human PDGF-BB; assay: cell-based or functional assay; remark: listed apart in the source
human PDGF-BB [12] = target: T4, human PDGF-BB; assay: SPR; apparent KD** of the IgG
human PDGF-BB [13] = target: T4, human PDGF-BB; assay: SPR (BIAcore B4000); PDGF-BB coupled on C1 chip, antibody injected; apparent value
Method: (§2) The binding analysis was carried out using a surface plasmon resonance spectroscopy-based technology applying a BIAcore B4000 system (GE Healthcare). […] Utilizing a read out time of 180 sec. association phase and 600 sec. dissociation phase the apparent kₐ and apparent kd were calculated. The apparent KD (avidity) was calculated using the BlAcore T200 v2.0 fitting software.

cynomolgus PDGF-BB [14] = target: T7, cynomolgus PDGF-BB; assay: as above
Method: as §2

human PDGF-BB [15] = target: T4, human PDGF-BB; assay: SPR (BIAcore T200) kinetic screening; PDGF-BB coupled on C1 chip, antibody injected
human PDGF-BB [16] = target: T4, human PDGF-BB; assay: SPR (BIAcore B4000); PDGF-BB coupled on C1 chip, antibody injected; apparent KD (avidity)
Method: as §2

cynomolgus PDGF-BB [17] = target: T7, cynomolgus PDGF-BB; assay: as above
Method: as §2

human PDGF-BB [18] = target: T4, human PDGF-BB; assay: competition ELISA; biotinylated human PDGF-BB with antibody on coated Fc-tagged PDGF-BB receptor (competitor)
Method: (§3) The IC₅₀ was calculated with a four parameter logistic model using GraphPad Prism 6.0 software.

human PDGF-BB [19] = target: T4, human PDGF-BB; assay: SPR; whole antibody
human PDGF-BB [20] = target: T4, human PDGF-BB; assay: ELISA, antigen coated; remark: listed apart in the source
murine PDGF-BB [21] = target: T5, murine PDGF-BB; assay: ELISA, antigen coated; remark: listed apart in the source
rat PDGF-BB [22] = target: T6, rat PDGF-BB; assay: ELISA, antigen coated; remark: listed apart in the source
human PDGF-AA = target: T8, human PDGF-AA (human, UniProt P04085 87-211, limits assumed); assay: ELISA, antigen coated
T8 construct: also called huPDGF-AA

human PDGF-BB [23] = target: T4, human PDGF-BB; assay: cell-based or functional assay; remark: listed apart in the source
human PDGF-BB [24] = target: T4, human PDGF-BB; assay: cell-based or functional assay; remark: listed apart in the source
human PDGF-BB [25] = target: T4, human PDGF-BB; assay: SPR; apparent KD** of the whole antibody
human PDGF-BB [26] = target: T4, human PDGF-BB; assay: SPR (BIAcore T200) kinetic screening; PDGF-BB coupled on C1 chip, antibody injected; remark: listed apart in the source
human PDGF-BB [27] = target: T4, human PDGF-BB; assay: competition ELISA; biotinylated human PDGF-BB with antibody on coated Fc-tagged PDGF-BB receptor (competitor); remark: listed apart in the source
Method: as §3

human PDGF-BB [28] = target: T4, human PDGF-BB; assay: SPR; Fab
human PDGF-BB [29] = target: T4, human PDGF-BB; assay: SPR; apparent KD of the Fab
human PDGF-BB [30] = target: T4, human PDGF-BB; assay: SPR (BIAcore T200); PDGF-BB coupled on CM3 chip, Fab injected

T7 sequence (A0A2K5UX81 entry or part of it): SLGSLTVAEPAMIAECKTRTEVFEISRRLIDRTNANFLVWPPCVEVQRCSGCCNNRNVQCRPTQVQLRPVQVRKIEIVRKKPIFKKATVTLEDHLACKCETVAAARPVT
T5 sequence (P31240 82-190 limits assumed): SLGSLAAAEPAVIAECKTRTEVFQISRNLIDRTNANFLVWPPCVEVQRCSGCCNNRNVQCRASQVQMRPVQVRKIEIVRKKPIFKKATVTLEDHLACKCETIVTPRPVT
T6 sequence (Q05028 74-182 limits assumed): as the sequence (P31240 82-190 limits assumed) above, with I83V, I102V counted along it
T4 sequence (P01127 82-190 limits assumed): as the sequence (A0A2K5UX81 entry or part of it) above, with V7I counted along it

B1: antibody 0031 (bispecific antibody, V domains shown)
VH 1: QVQLVQSGAEVKKPGASVKVSCKASGYTFTGYYMHWVRQAPGQGLEWIGYISSYNAFTTYNQKFRGRATFTVDTSISTAYMELSRLRSDDTAVYYCVRSDYYGTSLYWGQGTLVTVSS
VL 1: EIVLTQSPATLSLSPGERATLSCRASSSVSYMHWSQQKPGQAPRLLIYSTSNLASGIPARFSGSGSGTDFTLTISSLEPEDFAVYYCHQWSNYYTFGQGTKLEIK
VH 2: not shown
VL 2: SYVLTQPPSVSVAPGQTARITCGGNNIGSKSVHWYQQKPGQAPVLVVYDTSDRPSGIPERFSGSNSGNTATLTISRVEAGDEADYYCQVWDSSSDHWVFGGGTKLTVLSS
notes: CrossMab; also called anti-IL-1beta/ANG2 antibody; bispecific anti-ANG2/IL-1beta antibody
ANG2
  ANG2 specific pTie2-ELISA, activity against the anti-ANG2/VEGF antibody reported in WO 2014/09465: 6 fold
Human IL-1beta [1]
  IC50, inhibition of ICAM-1 expression upon IL-1beta stimulation of A549 cells: 0.104 µg/mL
Human IL-1beta [2]
  EC50, reduction of IL-6 expression upon IL-1beta stimulation of A549 cells: 0.017 µg/mL
[3]
  Kd: 8 nM
  koff: 0.00115 s⁻¹
  kon: 145000 M⁻¹ s⁻¹
  t½: 10.1 min
Human IL-1beta [4]
  Kd: 0.12 nM
  koff: 0.000302 s⁻¹
  kon: 2.56e+06 M⁻¹ s⁻¹
  t 1/2: 38

B2: antibody 0085 (antibody, V domains shown)
VH: EVQLVESGGGLVQPGGSLRLSCAASGFTFSSYWMSWVRQAPEKGLEWVSTISDGGGLTYYADSVKGRFTISRDNAKNSLYLQMNSLRAEDTAVYYCAESGGYTDWLFGYWGQGTLVTVSS
VL: not shown
notes: Human antibody from a human Ig locus transgenic rabbit
Human PDGF-BB [5]
  T½: 146 min
Human PDGF-BB [6]
  EC50: 0.00755 µg/mL
Murine PDGF-BB [7]
  EC50: 0.025 µg/mL
Rat PDGF-BB [8]
  EC50: 0.016 µg/mL
Cynomolgus PDGF-BB [9]
  EC50: 0.0153 µg/mL
Human PDGF-BB [10]
  IC50 Proliferation 3T3: 0.0318 µg/mL
Human PDGF-BB [11]
  Balb-C3T3 Proliferation, IC50: 0.06 nM
  Pericytes Migration, IC50: 0.15 nM
  Pericytes Proliferation, IC50: 0.11 nM
Human PDGF-BB [12]
  Kd: 0.023 nM
Human PDGF-BB [13]
  koff: 4.4e-05 s⁻¹
  kon: 930000 M⁻¹ s⁻¹
Cynomolgus PDGF-BB [14]
  koff: 4.52e-05 s⁻¹
  kon: 940000 M⁻¹ s⁻¹
Human PDGF-BB [15]
  koff: 0.000102 s⁻¹
  t½: 114 min
Human PDGF-BB [16]
  Kd: 0.0476 nM
Cynomolgus PDGF-BB [17]
  Kd: 0.0478 nM
Human PDGF-BB [18]
  IC50: 0.0178 µg/mL

B3: antibody 0086 (antibody, V domains shown)
VH: B2 VH
VL: not shown
notes: as for B2
Human PDGF-BB [5]
  T½: 41 min
Human PDGF-BB [6]
  EC50: 0.012 µg/mL
Murine PDGF-BB [7]
  EC50: 0.0141 µg/mL
Rat PDGF-BB [8]
  EC50: 0.0106 µg/mL
Cynomolgus PDGF-BB [9]
  EC50: 0.0162 µg/mL
Human PDGF-BB [10]
  IC50 Proliferation 3T3: 0.056 µg/mL
Human PDGF-BB [11]
  Balb-C3T3 Proliferation, IC50: 0.11 nM
  Pericytes Migration, IC50: 0.09 nM
  Pericytes Proliferation, IC50: 0.09 nM
Human PDGF-BB [12]
  Kd: 0.03 nM
Human PDGF-BB [13]
  koff: 2.3e-05 s⁻¹
  kon: 1.04e+06 M⁻¹ s⁻¹
Cynomolgus PDGF-BB [14]
  koff: 1.84e-05 s⁻¹
  kon: 1.04e+06 M⁻¹ s⁻¹
Human PDGF-BB [15]
  koff: 7.93e-05 s⁻¹
  t½: 146 min
Human PDGF-BB [16]
  Kd: 0.0218 nM
Cynomolgus PDGF-BB [17]
  Kd: 0.0178 nM
Human PDGF-BB [18]
  IC50: 0.0117 µg/mL

B4: PDGF-B-mumAb (antibody, V domains shown)
VH: QVQLQQSGAELMKPGASVKISCKATGYTFSSYWIEWVKQRPGHGLEWIGEILPGSGSTNYNEKFKVKATFTADTSSNTAYMQLSSLTSEDSAVYYCAQTTQDFDSWGQGTTLTVSS
VL: DIVLTQSPGSLAVSLGQRATISCRASESVDIYGYSFMHWYQQKPGQPPKLLIYRASNLESGIPARFSGSGSRTDFTLTINPVEADDVATYYCQQSNEDPRTFGGGTKLEIK
notes: Murine antibody; also called murine anti-human PDGF-B antibody
Human PDGF-BB [19]
  T½: 47.8 min
Human PDGF-BB [20]
  EC50: 0.0163 µg/mL
Murine PDGF-BB [21]
  EC50: 0.0088 µg/mL
Rat PDGF-BB [22]
  EC50: 0.00512 µg/mL
Human PDGF-AA
  EC50: 0.00204 µg/mL
Human PDGF-BB [23]
  IC50 Phospho-Inhibition: 0.0017 µg/mL
  IC50 Proliferation 3T3: 0.0551 µg/mL
Human PDGF-BB [24]
  IC50 Phospho-Inhibition: 0.0017 µg/mL
  IC50 Proliferation 3T3: 0.0551 µg/mL
Human PDGF-BB [25]
  Kd: 0.042 nM
Human PDGF-BB [26]
  koff: 0.00045 s⁻¹
  t½: 26 min
Human PDGF-BB [27]
  IC50: 0.0122 µg/mL

B5: PDGF-B-mumAb Fab (Fab, V domains shown)
VH: B4 VH
VL: B4 VL
notes: Fab fragment of PDGF-B-mumAb
Human PDGF-BB [28]
  T½: 5.75 min
Human PDGF-BB [29]
  Kd: 5 nM
Human PDGF-BB [30]
  Kd: 5 nM
  koff: 0.00201 s⁻¹
  kon: 439000 M⁻¹ s⁻¹
  t½: 5.75 min
